Assay results published in doi:10.1101/2020.06.21.163824.

Columns and labels:
[1] = biological target: rhTNFα labeled in the amine groups (NT-650, NHS-coupling) (human) (UniProt P01375); test: MST
[2] = biological target: recombinant human TNFα (soluble human TNFα, residues 85-233, C-terminal His tag) (human) (UniProt P01375); test: ELISA
[3] = biological target: Adalimumab labeled with NT-647 in the thiol groups (Cys-coupling) (human); test: MST

KD of the first phase (Adalimumab 30.5 pM to 7.8 nM) [1] [pM] | KD of the second phase (Adalimumab 1.95 to 1 µM) [1] [nM] | Kd [2] [nM] | OD50 (antagonist concentration at half-maximal OD), rhTNFα coated at 1,25 µg/ml [2] [nM] | OD50 (antagonist concentration at half-maximal OD), rhTNFα coated at 2,5 µg/ml [2] [nM] | Kd [3] [nM] | Substance
100 | 21 | 1.32 | 0.641 | 0.622 | – | Adalimumab (Humira) (antibody)
– | – | – | – | – | 29.6 | recombinant human TNFα (soluble human TNFα, residues 85-233, C-terminal His tag) (from UniProt P01375 85-233) (ligand)
